Data on one molecule can be found in PMC4140777, “Recognition of Bungarus multicinctus Venom by a DNA Aptamer against β-Bungarotoxin”.

In the series the target is α-bungarotoxin (α-BuTx) (Bungarus multicinctus, UniProt P60615 22-95). In words: 20 mM HEPES pH 7.4, 150 mM NaCl, 5 mM KCl, 2 mM MgCl2, 2 mM CaCl2, room temperature. The note with it: protein: commercial; label: 5'-FAM (FA, filter, EMSA); biotin (ELAA); stem-loop (predicted).
Sequence of α-bungarotoxin (α-BuTx) (P60615 22-95): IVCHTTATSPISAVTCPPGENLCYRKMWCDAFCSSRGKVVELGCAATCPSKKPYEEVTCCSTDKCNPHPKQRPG

B1: βB-1 (ssDNA)
DNA: AGCAGCACAGAGGTCAGATGGTTTTCCCCTTGTCGCTTTTGGTTCGTTCTGCCTCTATCTCCTATGCGTGCTACCGTGAA
As to B1, the binding result is listed as “no binding”.
